# Source: the supplement of paper PMC9732359
# ± gives the uncertainty stated by the source.
# Test: protein stability index of a GFP-peptide fusion (yeast GPS) (PSI 1-4); higher = more stable; sorted into four equal gates, so the index is relative within each strain
# Outline: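 Tiled 17-residue yeast protein peptides were fused downstream of GFP in a plasmid that also expresses Cherry, and the pooled library was carried in yeast. Mid-log cultures in leucine-free medium were sorted into four equal gates by GFP/Cherry fluorescence ratio, and plasmids from each gate were PCR-amplified and Illumina-sequenced, with reads assigned to strains by barcodes. The protein stability index for each peptide was each gate's read frequency times its gate number, summed.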
Sequence,protein stability index (doa10∆),protein stability index (pdr5∆),protein stability index (san1∆),protein stability index (ubr1∆)
AVAEAYNNRSLLDFNTA [RPN6],3.16 ± 0.081,2.98 ± 0.077,3.11 ± 0.066,3.25 ± 0.11
PGGASGLGVLTHRNKDG [FAS1],3.35 ± 0.067,2.74 ± 0.081,3.24 ± 0.076,3.44 ± 0.069
EVLVTPGLEFLDDTTIP [MCD1],2.02 ± 0.057,2.98 ± 0.059,3.25 ± 0.037,3.08 ± 0.059
ELCKKNESKIKELNEKI [RPN7],3.2 ± 0.12,2.73 ± 0.098,2.27 ± 0.11,2.47 ± 0.13
LEETRTTIGDTTDKNTT [BRN1],3.2 ± 0.071,3.27 ± 0.059,3.04 ± 0.055,3.17 ± 0.057
FLIKASVREINLYMLVT [SSN8],1.55 ± 0.063,1.43 ± 0.047,1.89 ± 0.091,1.44 ± 0.052
VQFGLNEETFTVPELEI [ARP9],3.17 ± 0.076,3.02 ± 0.096,2.78 ± 0.11,3.19 ± 0.082
SKKVLECLPAEGHDWKA [DIS3],1.65 ± 0.13,1.69 ± 0.13,1.47 ± 0.1,1.55 ± 0.07
QTHPDTGISQKSMSILN [HTB1],3.04 ± 0.056,3.01 ± 0.069,3.11 ± 0.06,2.72 ± 0.068
SDSEIPPLLVYKWTQGI [PRP8],2.3 ± 0.056,2.36 ± 0.057,2.26 ± 0.068,2.07 ± 0.074
PNGHISTKKIQVATKYA [YMR129W/POM152],1.86 ± 0.082,2.24 ± 0.05,1.75 ± 0.067,2 ± 0.043
KLALAENDTNMNETLNL [SMC4],3.15 ± 0.13,3.15 ± 0.077,3.04 ± 0.1,2.85 ± 0.089
KTANSSSDAFEKLKVNM [YIL149C/MLP2],2.46 ± 0.053,2.54 ± 0.065,2.95 ± 0.065,3.02 ± 0.051
VIQQDKYQKALHYLKKF [SRP72],1.61 ± 0.098,1.26 ± 0.079,1.2 ± 0.14,2.15 ± 0.1
PQEESVSPNISSASPSA [SIR3],2.99 ± 0.048,3.15 ± 0.046,3.01 ± 0.034,3.03 ± 0.028
AGVPRQAINLGQVVLTP [RPL14A],2.09 ± 0.15,2.64 ± 0.13,1.58 ± 0.23,2.04 ± 0.21
KYFTESDIPVSENVFEG [SSN3],3.06 ± 0.11,3.25 ± 0.098,3.1 ± 0.094,3.06 ± 0.073
GLQDEIMKIGGIKLQMQ [SMC4],2.8 ± 0.071,3.13 ± 0.053,3.02 ± 0.058,3.17 ± 0.089
LQKKFVTKQSELNSSED [SMC1],–,3.52 ± 0.26,–,–
ITLALSSNPNSSLHSPT [SRB4],2.9 ± 0.067,2.99 ± 0.055,2.91 ± 0.047,3.05 ± 0.044
SSDGAYTEQFQHYKNNS [SSN2],2.99 ± 0.068,3.03 ± 0.056,3.02 ± 0.066,3.06 ± 0.05
KEKESKKDSKPAFSFGI [YLR335W/NUP2],2.96 ± 0.077,3.01 ± 0.068,3.19 ± 0.058,3.23 ± 0.059
VQIGAEIILDFLQDKVQ [CSI1],3.03 ± 0.085,3.07 ± 0.066,2.88 ± 0.061,3.06 ± 0.047
WLIEGKLYVDAVHSIIA [YDL116W/NUP84],1.2 ± 0.18,1.32 ± 0.15,1.07 ± 0.28,1.1 ± 0.095
ITMESVHEWEVSKPSLL [PRP8],3.29 ± 0.069,3.29 ± 0.069,3.29 ± 0.066,3.24 ± 0.056
VNGSTTAGVGSTPNFGG [SIN4],3.58 ± 0.079,3.33 ± 0.095,3.4 ± 0.078,3.25 ± 0.077
SRRFKNGFQTGSAKATS [RPL37B],3.13 ± 0.078,3.12 ± 0.087,3.37 ± 0.096,3.17 ± 0.059
RYQHLEKITQISLLCKN [PCI8],1.23 ± 0.066,1.5 ± 0.051,1.25 ± 0.11,1.22 ± 0.048

Sequence,protein stability index (doa10∆),protein stability index (pdr5∆),protein stability index (san1∆),protein stability index (ubr1∆)
NEYYPMCEQALSALFTI [YCS4],2.2 ± 0.062,2.65 ± 0.088,2.47 ± 0.077,2.39 ± 0.045
VLLVLPFTDRSVVRGNT [COB],3.11 ± 0.14,3.31 ± 0.15,3.52 ± 0.07,3.34 ± 0.15
SASNTAKSTPNTNPSPL [GAL11],2.67 ± 0.044,2.87 ± 0.042,2.65 ± 0.038,2.9 ± 0.032
GVSSPGFSPTSPTYSPT [RPO21],2.82 ± 0.069,3 ± 0.058,2.82 ± 0.057,3.05 ± 0.055
VMSSDDENAPVATNANA [PRE10],3.27 ± 0.18,3.42 ± 0.11,3.15 ± 0.13,2.5 ± 0.26
IADLASLEQLLGMMYEQ [YCS4],3.18 ± 0.1,2.6 ± 0.067,2.6 ± 0.074,2.65 ± 0.031
PLSGLLFKNYRFNFISK [YMR129W/POM152],2.85 ± 0.11,2.17 ± 0.07,1.73 ± 0.098,2.25 ± 0.094
CKLTLDINVELFPVAAQ [RPB8],2.57 ± 0.063,2.24 ± 0.079,2.43 ± 0.078,2.96 ± 0.05
VRVRTTKIPQIGDKFAS [RPB2],2.55 ± 0.068,2.68 ± 0.072,3.13 ± 0.064,2.66 ± 0.035
EESSTGKSTADVKSSDS [YJL041W/NSP1],–,3.35 ± 0.19,–,–
KKLKAVRIIKHTLDIIN [RPS5],2 ± 0.066,2.01 ± 0.048,1.91 ± 0.057,2.36 ± 0.051
VKDFTSLGFNEVFSRPE [RPO21],–,2.56 ± 0.27,2.96 ± 0.27,2.9 ± 0.19
IQLPASLAATYSMISLQ [ARP9],1.73 ± 0.088,2.01 ± 0.074,2.29 ± 0.1,2.19 ± 0.053
EVHDLIGFITSGTYHLN [POP1],2.69 ± 0.15,2.64 ± 0.14,2.11 ± 0.13,2.48 ± 0.11
LAKLVSTIDANFADKYD [RPL8A],2.41 ± 0.14,2.8 ± 0.14,2.8 ± 0.12,1.89 ± 0.069
TGKDCVAIACDLRLGSQ [PUP3],1.38 ± 0.088,1.48 ± 0.092,2.32 ± 0.064,2.7 ± 0.061
IFEKELMYQIKKECALL [SRB4],2.87 ± 0.28,3.2 ± 0.21,2.61 ± 0.26,3.44 ± 0.19
YAQRIGSGAPVYLTAVL [HTA1],2.35 ± 0.058,2.48 ± 0.072,2.53 ± 0.097,2.35 ± 0.051
LLAHKVADEEANIELTW [RPC37],1.49 ± 0.074,–,1.59 ± 0.14,1.74 ± 0.1
YFQQTTIDWVEAGLQLC [PRP8],3.53 ± 0.11,3.19 ± 0.099,3.2 ± 0.064,3.04 ± 0.1
NKPIKRMLSSILDINVS [SWP82],2.52 ± 0.046,2.6 ± 0.041,2.48 ± 0.053,2.31 ± 0.027
RVGGGGTGRSGQGAFGN [RPL4A],3.54 ± 0.13,3.52 ± 0.11,3.54 ± 0.066,3.34 ± 0.1
SKDEPVSKAVESKSLLN [SIR4],2.39 ± 0.097,2.82 ± 0.091,1.37 ± 0.12,1.86 ± 0.097
IELLSLDDDSIVNHEQD [SRB4],2.9 ± 0.1,3.19 ± 0.089,3.4 ± 0.083,3.12 ± 0.088
TATGAASKSGKLTQKLV [CYT1],1.64 ± 0.092,1.62 ± 0.078,2.69 ± 0.11,1.83 ± 0.063
VEQYKFRETTHSKRELD [BRR2],3.27 ± 0.072,2.96 ± 0.059,2.58 ± 0.054,2.73 ± 0.054
KGTGEESNDRINKIVEI [YGR119C/NUP57],3.66 ± 0.18,3.18 ± 0.16,2.93 ± 0.17,2.89 ± 0.15
